Results taken from publication PMC8210318, “The HelQ human DNA repair helicase utilizes a PWI-like domain for DNA loading through interaction with RPA, triggering DNA unwinding by the HelQ helicase core” (NAR Cancer, 2021).

Key:
[1] = target: the molecule itself; test: SEC; analytical gel filtration of C-HelQ in ATP-Mg2+ and ssDNA, Superdex-200, against mass standards
[2] = target: the molecule itself; test: SEC-MALS; HelQ with ATP-Mg2+: pre-incubated in 5 mM MgCl2 and 5 mM ATP at 37°C for 10 min, running buffer with 0.2 mM ATP and 0.2 mM MgCl2, Superdex-200
[3] = target: the molecule itself; test: SEC-MALS; HelQ apoenzyme, 200 ul of 2.4 uM monomer, Superdex-200, 50 mM Tris-HCl pH 8.0, 150 mM NaCl, 10% glycerol, pre-incubated 10 min at 37°C; no ATP-Mg2+

B1: C-HelQ, HelQ 'core' helicase (826 amino acids) (domain or fragment, human, UniProt Q8TDG4 275-1101, looked up)
chain: GNAKAQTPIFSRSKQLKDTLLSEEINVAKKTVESSSNDLGPFYSLPSKVRDLYAQFKGIEKLYEWQHTCLTLNSVQERKNLIYSLPTSGGKTLVAEILMLQELLCCRKDVLMILPYVAIVQEKISGLSSFGIELGFFVEEYAGSKGRFPPTKRREKKSLYIATIEKGHSLVNSLIETGRIDSLGLVVVDELHMIGEGSRGATLEMTLAKILYTSKTTQIIGMSATLNNVEDLQKFLQAEYYTSQFRPVELKEYLKINDTIYEVDSKAENGMTFSRLLNYKYSDTLKKMDPDHLVALVTEVIPNYSCLVFCPSKKNCENVAEMICKFLSKEYLKHKEKEKCEVIKNLKNIGNGNLCPVLKRTIPFGVAYHHSGLTSDERKLLEEAYSTGVLCLFTCTSTLAAGVNLPARRVILRAPYVAKEFLKRNQYKQMIGRAGRAGIDTIGESILILQEKDKQQVLELITKPLENCYSHLVQEFTKGIQTLFLSLIGLKIATNLDDIYHFMNGTFFGVQQKVLLKEKSLWEITVESLRYLTEKGLLQKDTIYKSEEEVQYNFHITKLGRASFKGTIDLAYCDILYRDLKKGLEGLVLESLLHLIYLTTPYDLVSQCNPDWMIYFRQFSQLSPAEQNVAAILGVSESFIGKKASGQAIGKKVDKNVVNRLYLSFVLYTLLKETNIWTVSEKFNMPRGYIQNLLTGTASFSSCVLHFCEELEEFWVYRALLVELTKKLTYCVKAELIPLMEVTGVLEGRAKQLYSAGYKSLMHLANANPEVLVRTIDHLSRRQAKQIVSSAKMLLHEKAEALQEEVEELLRLPSDFPGAVASSTDKA
notes: human HelQ helicase core: the 826 amino acids that match Hel308; excludes the 274 amino acid N-terminal region; 85 kDa; The start at 275 follows from the excluded 274 residue N-terminal region; also called core HelQ helicase; source: Escherichia coli, purified (as described for HelQ)
stoichiometry N [1]: 2

B2: HelQ helicase, full length, human (enzyme, UniProt Q8TDG4 1-1101, looked up)
chain: MDECGSRIRRRVSLPKRNRPSLGCIFGAPTAAELVPGDEGKEEEEMVAENRRRKTAGVLPVEVQPLLLSDSPECLVLGGGDTNPDLLRHMPTDRGVGDQPNDSEVDMFGDYDSFTENSFIAQVDDLEQKYMQLPEHKKHATDFATENLCSESIKNKLSITTIGNLTELQTDKHTENQSGYEGVTIEPGADLLYDVPSSQAIYFENLQNSSNDLGDHSMKERDWKSSSHNTVNEELPHNCIEQPQQNDESSSKVRTSSDMNRRKSIKDHLKNAMTGNAKAQTPIFSRSKQLKDTLLSEEINVAKKTVESSSNDLGPFYSLPSKVRDLYAQFKGIEKLYEWQHTCLTLNSVQERKNLIYSLPTSGGKTLVAEILMLQELLCCRKDVLMILPYVAIVQEKISGLSSFGIELGFFVEEYAGSKGRFPPTKRREKKSLYIATIEKGHSLVNSLIETGRIDSLGLVVVDELHMIGEGSRGATLEMTLAKILYTSKTTQIIGMSATLNNVEDLQKFLQAEYYTSQFRPVELKEYLKINDTIYEVDSKAENGMTFSRLLNYKYSDTLKKMDPDHLVALVTEVIPNYSCLVFCPSKKNCENVAEMICKFLSKEYLKHKEKEKCEVIKNLKNIGNGNLCPVLKRTIPFGVAYHHSGLTSDERKLLEEAYSTGVLCLFTCTSTLAAGVNLPARRVILRAPYVAKEFLKRNQYKQMIGRAGRAGIDTIGESILILQEKDKQQVLELITKPLENCYSHLVQEFTKGIQTLFLSLIGLKIATNLDDIYHFMNGTFFGVQQKVLLKEKSLWEITVESLRYLTEKGLLQKDTIYKSEEEVQYNFHITKLGRASFKGTIDLAYCDILYRDLKKGLEGLVLESLLHLIYLTTPYDLVSQCNPDWMIYFRQFSQLSPAEQNVAAILGVSESFIGKKASGQAIGKKVDKNVVNRLYLSFVLYTLLKETNIWTVSEKFNMPRGYIQNLLTGTASFSSCVLHFCEELEEFWVYRALLVELTKKLTYCVKAELIPLMEVTGVLEGRAKQLYSAGYKSLMHLANANPEVLVRTIDHLSRRQAKQIVSSAKMLLHEKAEALQEEVEELLRLPSDFPGAVASSTDKA
notes: human HelQ DNA repair helicase, full length; Tetramer as apoenzyme and dimer with ATP-Mg2+ by SEC-MALS; also called HelQ apoenzyme; His-SUMO-SF-tagged HelQ; source: SF9 insect cells (Bac-to-Bac baculovirus), purified (ammonium sulphate, Ni-NTA, heparin, Q-sepharose); not shown: His6, N-terminal, kept; SUMO, N-terminal, kept; StrepII-Flag, N-terminal, kept
stoichiometry N [2]: 2 | stoichiometry N [3]: 4
